Test results reported in the supplement of paper PMC9112550, “Optimization of the antimicrobial peptide Bac7 by deep mutational scanning” (BMC Biology, 2022).

Tested on: Escherichia coli TOP10
Test: shrunken log2 fold change of peptide-encoding DNA abundance (4.5 h post-induction vs induction); higher = less antimicrobial activity (less host growth inhibition)
Settings: time post-induction: 4.5 h; library: site-saturation at positions 5, 18, 19, 20
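Also: peptides expressed intracellularly from a pBAD plasmid library in pooled LB shake-flask culture, induced with 0.3% L-arabinose, DNA abundance read by NGS, three biological replicates, DESeq2 with apeglm shrinkage.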

| Sequence | shrunken log2 fold change |
| --- | --- |
| RRIRGRPPRLPRPRPRPWNPPRP | -0.448 |
| RRIRIRPPRLPRPRPRPFHNPRP | -0.213 |
| RRIRARPPRLPRPRPRPHDVPRP | 0.0276 |
| RRIRHRPPRLPRPRPRPPRQPRP | 0.108 |
| RRIRDRPPRLPRPRPRPGGRPRP | 0.569 |
| RRIRFRPPRLPRPRPRPRSAPRP | 0.379 |
| RRIRPRPPRLPRPRPRPPECPRP | 0.338 |
| RRIRHRPPRLPRPRPRPYPRPRP | -0.27 |
| RRIRWRPPRLPRPRPRPFKRPRP | 0.0707 |
| RRIRSRPPRLPRPRPRPKIQPRP | -0.311 |
| RRIRRRPPRLPRPRPRPMLPPRP | -0.000603 |
| RRIRNRPPRLPRPRPRPGGIPRP | -0.109 |
| RRIRWRPPRLPRPRPRPSTLPRP | -0.253 |
| RRIRARPPRLPRPRPRPAMFPRP | -0.0337 |
| RRIRFRPPRLPRPRPRPFSLPRP | -0.375 |
| RRIRVRPPRLPRPRPRPCSRPRP | -0.0712 |
| RRIRSRPPRLPRPRPRPVGKPRP | -0.0806 |
| RRIRNRPPRLPRPRPRPRNCPRP | -0.0144 |
| RRIRRRPPRLPRPRPRPVYIPRP | -0.535 |
| RRIRDRPPRLPRPRPRPCRWPRP | -0.537 |
| RRIRSRPPRLPRPRPRPYCGPRP | -0.726 |
| RRIRYRPPRLPRPRPRPYAFPRP | -0.0129 |

| Sequence | shrunken log2 fold change |
| --- | --- |
| RRIRGRPPRLPRPRPRPYSQPRP | -0.621 |
| RRIRDRPPRLPRPRPRPIRSPRP | -0.00822 |
| RRIRIRPPRLPRPRPRPNMIPRP | -0.225 |
| RRIRHRPPRLPRPRPRPEGQPRP | -0.0936 |
| RRIRKRPPRLPRPRPRPTIMPRP | -0.0223 |
| RRIRLRPPRLPRPRPRPMMNPRP | -0.18 |
| RRIRNRPPRLPRPRPRPFTLPRP | -0.884 |
| RRIRLRPPRLPRPRPRPVGSPRP | -0.165 |
| RRIRWRPPRLPRPRPRPNYCPRP | -0.113 |
| RRIRHRPPRLPRPRPRPFCCPRP | -0.0718 |
| RRIRNRPPRLPRPRPRPESAPRP | -0.0184 |
| RRIRSRPPRLPRPRPRPIHIPRP | -0.157 |
| RRIRARPPRLPRPRPRPFLMPRP | 0.791 |
| RRIRPRPPRLPRPRPRPNMDPRP | -0.674 |
| RRIRNRPPRLPRPRPRPTCKPRP | -0.0431 |
| RRIRKRPPRLPRPRPRPDEAPRP | 3.09 |
| RRIRKRPPRLPRPRPRPASYPRP | -0.0778 |
| RRIRTRPPRLPRPRPRPSCAPRP | -0.127 |
| RRIRMRPPRLPRPRPRPELEPRP | 4.13 |
| RRIRLRPPRLPRPRPRPAWNPRP | 0.133 |
| RRIRIRPPRLPRPRPRPFHKPRP | -0.196 |
| RRIRKRPPRLPRPRPRPTFHPRP | 0.136 |

| Sequence | shrunken log2 fold change |
| --- | --- |
| RRIRCRPPRLPRPRPRPRASPRP | 0.282 |
| RRIRYRPPRLPRPRPRPLEIPRP | -0.00674 |
| RRIRRRPPRLPRPRPRPTFCPRP | 0.0676 |
| RRIRERPPRLPRPRPRPLRVPRP | 0.269 |
| RRIRYRPPRLPRPRPRPFHLPRP | -0.532 |
| RRIRNRPPRLPRPRPRPEHRPRP | -0.226 |
| RRIRIRPPRLPRPRPRPAMCPRP | -0.182 |
| RRIRCRPPRLPRPRPRPLAWPRP | -0.0538 |
| RRIRGRPPRLPRPRPRPMEKPRP | 0.0535 |
| RRIRFRPPRLPRPRPRPCPRPRP | 0.0155 |
| RRIRIRPPRLPRPRPRPNWCPRP | -0.26 |
| RRIRFRPPRLPRPRPRPESRPRP | 0.146 |
| RRIRRRPPRLPRPRPRPEVWPRP | 1.74 |
| RRIRLRPPRLPRPRPRPDKRPRP | -0.175 |
| RRIRCRPPRLPRPRPRPHMAPRP | -0.374 |
| RRIRPRPPRLPRPRPRPKAGPRP | 0.285 |
| RRIRKRPPRLPRPRPRPAGAPRP | 0.698 |
| RRIRDRPPRLPRPRPRPRKFPRP | -0.0848 |
| RRIRYRPPRLPRPRPRPSTMPRP | -0.434 |
| RRIRSRPPRLPRPRPRPGGSPRP | 0.0707 |
| RRIRRRPPRLPRPRPRPMMGPRP | 0.235 |
| RRIRPRPPRLPRPRPRPTAIPRP | 0.434 |

| Sequence | shrunken log2 fold change |
| --- | --- |
| RRIRARPPRLPRPRPRPYTMPRP | -0.301 |
| RRIRRRPPRLPRPRPRPTCVPRP | 0.455 |
| RRIRPRPPRLPRPRPRPITYPRP | -0.782 |
| RRIRRRPPRLPRPRPRPKTCPRP | 0.265 |
| RRIRWRPPRLPRPRPRPFTFPRP | -0.326 |
| RRIRQRPPRLPRPRPRPDREPRP | 0.00931 |
| RRIRIRPPRLPRPRPRPCYIPRP | -0.27 |
| RRIRVRPPRLPRPRPRPWTYPRP | -1.3 |
| RRIRWRPPRLPRPRPRPQLWPRP | 1.02 |
| RRIRQRPPRLPRPRPRPPARPRP | 0.23 |
| RRIRNRPPRLPRPRPRPNDNPRP | -0.734 |
| RRIRMRPPRLPRPRPRPYDCPRP | -0.113 |
| RRIRPRPPRLPRPRPRPQHMPRP | -0.537 |
| RRIRQRPPRLPRPRPRPMPSPRP | -0.162 |
| RRIRPRPPRLPRPRPRPVTKPRP | 0.138 |
| RRIRCRPPRLPRPRPRPLIIPRP | -1.07 |
| RRIRHRPPRLPRPRPRPVTFPRP | 0.00537 |
| RRIRLRPPRLPRPRPRPCGEPRP | 0.122 |
| RRIRFRPPRLPRPRPRPEMHPRP | -0.195 |
| RRIRLRPPRLPRPRPRPDGRPRP | -0.00938 |
| RRIRQRPPRLPRPRPRPFFFPRP | 0.0337 |
| RRIRARPPRLPRPRPRPNAFPRP | 0.424 |

| Sequence | shrunken log2 fold change |
| --- | --- |
| RRIRWRPPRLPRPRPRPASMPRP | -0.0478 |
| RRIRNRPPRLPRPRPRPREIPRP | 0.0831 |
| RRIRIRPPRLPRPRPRPDRDPRP | -0.0646 |
| RRIRWRPPRLPRPRPRPNCDPRP | 0.14 |
| RRIRFRPPRLPRPRPRPEEMPRP | -0.00182 |
| RRIRNRPPRLPRPRPRPDEPPRP | -0.061 |
| RRIRGRPPRLPRPRPRPVAAPRP | 1.73 |
| RRIRDRPPRLPRPRPRPLDWPRP | 0.0834 |
| RRIRNRPPRLPRPRPRPPFNPRP | -0.299 |
| RRIRGRPPRLPRPRPRPFTKPRP | -0.282 |
| RRIRRRPPRLPRPRPRPLGEPRP | 0.144 |
| RRIRQRPPRLPRPRPRPFQCPRP | -0.247 |
| RRIRKRPPRLPRPRPRPLNYPRP | -0.217 |
| RRIRKRPPRLPRPRPRPMCRPRP | 0.625 |
| RRIRMRPPRLPRPRPRPDWAPRP | 0.469 |
| RRIRKRPPRLPRPRPRPTNVPRP | 0.221 |
| RRIRYRPPRLPRPRPRPNVPPRP | -3.01 |
| RRIRYRPPRLPRPRPRPPVFPRP | 0.0494 |
| RRIRARPPRLPRPRPRPVIKPRP | -0.136 |
| RRIRRRPPRLPRPRPRPLPMPRP | 0.541 |
| RRIRVRPPRLPRPRPRPFWKPRP | 0.0154 |
